This note sets out measurements from the supplement of paper PMC5998384.

For data set [1], the system named is HeLa Kyoto. Nature of the data set: solubility change mitosis vs G1/S (difference of NP-40 vs SDS log2 ratios) (log2 ratio difference); higher = more soluble in mitosis.
Data set [2] has as its system HeLa Kyoto. Nature of the data set: solubility in G1/S (NP-40 vs SDS abundance) (log2 ratio); higher = more soluble. Conditions: cell cycle stage: G1/S.
In data set [3] the test system is HeLa Kyoto. Nature of the data set: thermal stability score vs G1/S (z-score of summed log2 fold changes over temperatures); higher = more thermally stable than in G1/S.
The mark [4] stands for this setting: cell cycle stage: early G1 (4.5 h after nocodazole release).
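Throughout, for solubility change mitosis vs G1/S (difference of NP-40 vs SDS log2 ratios): synchronized HeLa Kyoto cells (double thymidine block for G1/S, nocodazole release for mitosis), protein amounts in NP-40 versus SDS lysates quantified by mass spectrometry, three biological replicates.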
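Throughout, for solubility in G1/S (NP-40 vs SDS abundance): HeLa Kyoto cells arrested at G1/S by double thymidine block, proteins quantified by TMT10plex mass spectrometry in mild NP-40 versus SDS extracts, three biological replicates.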
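Throughout, for thermal stability score vs G1/S (z-score of summed log2 fold changes over temperatures): synchronized HeLa Kyoto cells, proteins quantified by TMT10plex mass spectrometry, three biological replicates, mitosis taken 0.5 h after nocodazole release, G1/S directly after double thymidine block.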

For the sequence “MSQYTEKEPAAMDQESGKAVWPKPAGGYQTITGRRYGRRHAYVSFKPCMTRHERSLGRAGDDYEVLELDDVPKENSSGSSPLDQVDSSLPSEPIFEKSETEIPTCGSALNQTTESSQSFVAVHHSEEGRDTLGSSTNLHNHSEGEYIPGACSASSVQNGIALVHTDSYDPDGKHGEDNDHLQLSAEVVEGSRYQESLGNTVFELENREAEAYTGLSPPVPSFNCEVRDEFEELDSVPLVKSSAGDTEFVHQNSQEIQRSSQDEMVSTKQQNNTSQERQTEHSPEDAACGPGHICSEQNTNDREKNHGSSPEQVVRPKVRKLISSSQVDQETGFNRHEAKQRSVQRWREALEVEESGSDDLLIKCEEYDGEHDCMFLDPPYSRVITQRETENNQMTSESGATAGRQEVDNTFWNGCGDYYQLYDKDEDSSECSDGEWSASLPHRFSGTEKDQSSSDESWETLPGKDENEPELQSDSSGPEEENQELSLQEGEQTSLEEGEIPWLQYNEVNESSSDEGNEPANEFAQPAFMLDGNNNLEDDSSVSEDLDVDWSLFDGFADGLGVAEAISYVDPQFLTYMALEERLAQAMETALAHLESLAVDVEVANPPASKESIDGLPETLVLEDHTAIGQEQCCPICCSEYIKDDIATELPCHHFFHKPCVSIWLQKSGTCPVCRRHFPPAVIEASAAPSSEPDPDAPPSNDSIAEAP [PJA2]”, the “solubility change mitosis (log2)” value in the data set with HeLa Kyoto [1] was 0.121. The “solubility in G1/S (log2)” value in the data set on HeLa Kyoto [2] is -0.111. Moreover, the figures for the thermal stability score in the data set on HeLa Kyoto [3] (setting [4]) and in the data set on HeLa Kyoto [3] (cell cycle stage: mitosis) were -3.9 and -1.5, respectively.
For “MSSEMLPAFIETSNVDKKQGINEDQEESQKPRLGEGCEPISKRQMKKLIKQKQWEEQRELRKQKRKEKRKRKKLERQCQMEPNSDGHDRKRVRRDVVHSTLRLIIDCSFDHLMVLKDIKKLHKQIQRCYAENRRALHPVQFYLTSHGGQLKKNMDENDKGWVNWKDIHIKPEHYSELIKKEDLIYLTSDSPNILKELDESKAYVIGGLVDHNHHKGLTYKQASDYGINHAQLPLGNFVKMNSRKVLAVNHVFEIILEYLETRDWQEAFFTILPQRKGAVPTDKACESASHDNQSVRMEEGGSDSDSSEEEYSRNELDSPHEEKQDKENHTESTVNSLPH [TRMT10A]”, in that order: -0.0488, -0.0218, 0.883 and 0.552.
The like results for “MSSKQEIMSDQRFRRVAKDPRFWEMPEKDRKVKIDKRFRAMFHDKKFKLNYAVDKRGRPISHSTTEDLKRFYDLSDSDSNLSGEDSKALSQKKIKKKKTQTKKEIDSKNLVEKKKETKKANHKGSENKTDLDNSIGIKKMKTSCKFKIDSNISPKKDSKEFTQKNKKEKKNIVQHTTDSSLEEKQRTLDSGTSEIVKSPRIECSKTRREMQSVVQLIMTRDSDGYENSTDGEMCDKDALEEDSESVSEIGSDEESENEITSVGRASGDDDGSEDDEEEDEDEEEDEDEDSEDDDKSDSGPDLARGKGNIETSSEDEDDTADLFPEESGFEHAWRELDKDAPRADEITRRLAVCNMDWDRLKAKDLLALFNSFKPKGGVIFSVKIYPSEFGKERMKEEQVQGPVELLSIPEDAPEKDWTSREKLRDYQFKRLKYYYAVVDCDSPETASKIYEDCDGLEFESSCSFIDLRFIPDDITFDDEPKDVASEVNLTAYKPKYFTSAAMGTSTVEITWDETDHERITMLNRKFKKEELLDMDFQAYLASSSEDEEEIEEELQGDDGVNVEEDGKTKKSQKDDEEQIAKYRQLLQVIQEKEKKGKENDMEMEIKWVPGLKESAEEMVKNKLEGKDKLTPWEQFLEKKKEKKRLKRKQKALAEEASEEELPSDVDLNDPYFAEEVKQIGINKKSVKSAKDGTSPEEEIEIERQKAEMALLMMDEDEDSKKHFNYNKIVEHQNLSKKKKKQLMKKKELIEDDFEVNVNDARFQAMYTSHLFNLDPSDPNFKKTKAMEKILEEKARQRERKEQELTQAIKKKESEIEKESQRKSIDPALSMLIKSIKTKTEQFQARKKQKVK [ESF1]” were, in that order, 0.656, -1.21, 2.5 and 5.59.
In the case of “MSTEGGGRRCQAQVSRRISFSASHRLYSKFLSDEENLKLFGKCNNPNGHGHNYKVVVTVHGEIDPATGMVMNLADLKKYMEEAIMQPLDHKNLDMDVPYFADVVSTTENVAVYIWDNLQKVLPVGVLYKVKVYETDNNIVVYKGE [PTS]”, the “solubility change mitosis (log2)” value in the data set on HeLa Kyoto [1] was -0.182. Also, in the data set with HeLa Kyoto [2], the “solubility in G1/S (log2)” value came out at 0.154. The thermal stability score with HeLa Kyoto [3] (setting [4]) was -0.38; in the data set on HeLa Kyoto [3] (cell cycle stage: mitosis) it was -1.87.
For “MTKLAQWLWGLAILGSTWVALTTGALGLELPLSCQEVLWPLPAYLLVSAGCYALGTVGYRVATFHDCEDAARELQSQIQEARADLARRGLRF [DPM3]”, in that order: -0.214, -0.196, -3.28 and -4.14.
The like results for “MTNPWEEKVCKMAQTSLLQGKQFYCREWVFHKLQHCLQEKSNCCNSAVNAPSLVMNSGNNASGVSGKGAAWGVLLVGGPGSGKTALCTELLWPSSPASLQRGLHRQALAFHFCKAQDSDTLCVGGFIRGLVAQICRSGLLQGYEDKLRDPAVQSLLQPGECERNPAEAFKRCVLLPLLGMKPPQQSLYLLVDSVDEGCNITEGEQTSTSLSGTVAALLAGHHEFFPPWLLLLCSARKQSKAVTKMFTGFRKISLDDLRKAYIVKDVQQYILHRLDQEEALRQHLTKETAEMLNQLHIKSSGCFLYLERVLDGVVENFIMLREIRDIPGTLNGLYLWLCQRLFVRKQFAKVQPILNVILAACRPLTITELYHAVWTKNMSLTLEDFQRKLDILSKLLVDGLGNTKILFHYSFAEWLLDVKHCTQKYLCNAAEGHRMLAMSYTCQAKNLTPLEAQEFALHLINSNLQLETAELALWMIWNGTPVRDSLSTLIPKEQEVLQLLVKAGAHVNSEDDRTSCIVRQALEREDSIRTLLDNGASVNQCDSNGRTLLANAAYSGSLDVVNLLVSRGADLEIEDAHGHTPLTLAARQGHTKVVNCLIGCGANINHTDQDGWTALRSAAWGGHTEVVSALLYAGVKVDCADADSRTALRAAAWGGHEDIVLNLLQHGAEVNKADNEGRTALIAAAYMGHREIVEHLLDHGAEVNHEDVDGRTALSVAALCVPASKGHASVVSLLIDRGAEVDHCDKDGMTPLLVAAYEGHVDVVDLLLEGGADVDHTDNNGRTPLLAAASMGHASVVNTLLFWGAAVDSIDSEGRTVLSIASAQGNVEVVRTLLDRGLDENHRDDAGWTPLHMAAFEGHRLICEALIEQGARTNEIDNDGRIPFILASQEGHYDCVQILLENKSNIDQRGYDGRNALRVAALEGHRDIVELLFSHGADVNCKDADGRPTLYILALENQLTMAEYFLENGANVEASDAEGRTALHVSCWQGHMEMVQVLIAYHADVNAADNEKRSALQSAAWQGHVKVVQLLIEHGAVVDHTCNQGATALCIAAQEGHIDVVQVLLEHGADPNHADQFGRTAMRVAAKNGHSQIIKLLEKYGASSLNGCSPSPVHTMEQKPLQSLSSKVQSLTIKSNSSGSTGGGDMQPSLRGLPNGPTHAFSSPSESPDSTVDRQKSSLSNNSLKSSKNSSLRTTSSTATAQTVPIDSFHNLSFTEQIQQHSLPRSRSRQSIVSPSSTTQSLGQSHNSPSSEFEWSQVKPSLKSTKASKGGKSENSAKSGSAGKKAKQSNSSQPKVLEYEMTQFDRRGPIAKSGTAAPPKQMPAESQCKIMIPSAQQEIGRSQQQFLIHQQSGEQKKRNGIMTNPNYHLQSNQVFLGRVSVPRTMQDRGHQEVLEGYPSSETELSLKQALKLQIEGSDPSFNYKKETPL [ANKRD50]” were, in that order, -0.256, 0.02, -0.667 and -0.543.
For “MTTAQRDSLLWKLAGLLRESGDVVLSGCSTLSLLTPTLQQLNHVFELHLGPWGPGQTGFVALPSHPADSPVILQLQFLFDVLQKTLSLKLVHVAGPGPTGPIKIFPFKSLRHLELRGVPLHCLHGLRGIYSQLETLICSRSLQALEELLSACGGDFCSALPWLALLSANFSYNALTALDSSLRLLSALRFLNLSHNQVQDCQGFLMDLCELHHLDISYNRLHLVPRMGPSGAALGVLILRGNELRSLHGLEQLRNLRHLDLAYNLLEGHRELSPLWLLAELRKLYLEGNPLWFHPEHRAATAQYLSPRARDAATGFLLDGKVLSLTDFQTHTSLGLSPMGPPLPWPVGSTPETSGGPDLSDSLSSGGVVTQPLLHKVKSRVRVRRASISEPSDTDPEPRTLNPSPAGWFVQQHPELELMSSFRERFGRNWLQYRSHLEPSGNPLPATPTTSAPSAPPASSQGPDTAPRPSPPQEEARGPQESPQKMSEEVRAEPQEEEEEKEGKEEKEEGEMVEQGEEEAGEEEEEEQDQKEVEAELCRPLLVCPLEGPEGVRGRECFLRVTSAHLFEVELQAARTLERLELQSLEAAEIEPEAQAQRSPRPTGSDLLPGAPILSLRFSYICPDRQLRRYLVLEPDAHAAVQELLAVLTPVTNVAREQLGEARDLLLGRFQCLRCGHEFKPEEPRMGLDSEEGWRPLFQKTESPAVCPNCGSDHVVLLAVSRGTPNRERKQGEQSLAPSPSASPVCHPPGHGDHLDRAKNSPPQAPSTRDHGSWSLSPPPERCGLRSVDHRLRLFLDVEVFSDAQEEFQCCLKVPVALAGHTGEFMCLVVVSDRRLYLLKVTGEMREPPASWLQLTLAVPLQDLSGIELGLAGQSLRLEWAAGAGRCVLLPRDARHCRAFLEELLDVLQSLPPAWRNCVSATEEEVTPQHRLWPLLEKDSSLEARQFFYLRAFLVEGPSTCLVSLLLTPSTLFLLDEDAAGSPAEPSPPAASGEASEKVPPSGPGPAVRVREQQPLSSLSSVLLYRSAPEDLRLLFYDEVSRLESFWALRVVCQEQLTALLAWIREPWEELFSIGLRTVIQEALALDR [STK11IP]”, in that order: -0.0941, -0.0528, -0.272 and -1.04.
For “MTTLDHVIATHQSEWVSFNEEPPFPAHSQGGTEEHLPGLSSSPDQSESSSGENHVVDGGSQDHSHSEQDDSSEKMGLISEAASPPGSPEQPPPDLASAISNWVQFEDDTPWASTSPPHQETAETALPLTMPCWTCPSFDSLGRCPLTSESSWTTHSEDTSSPSFGCSYTDLQLINAEEQTSGQASGADSTDNSSSLQEDEEVEMEAISWQASSPAMNGHPAPPVTSARFPSWVTFDDNEVSCPLPPVTSPLKPNTPPSASVIPDVPYNSMGSFKKRDRPKSTLMNFSKVQKLDISSLNRTPSVTEASPWRATNPFLNETLQDVQPSPINPFSAFFEEQERRSQNSSISSTTGKSQRDSLIVIYQDAISFDDSSKTQSHSDAVEKLKQLQIDDPDHFGSATLPDDDPVAWIELDAHPPGSARSQPRDGWPMMLRIPEKKNIMSSRHWGPIFVKLTDTGYLQLYYEQGLEKPFREFKLEICHEISEPRLQNYDENGRIHSLRIDRVTYKEKKKYQPKPAVAHTAEREQVIKLGTTNYDDFLSFIHAVQDRLMDLPVLSMDLSTVGLNYLEEEITVDVRDEFSGIVSKGDNQILQHHVLTRIHILSFLSGLAECRLGLNDILVKGNEIVLRQDIMPTTTTKWIKLHECRFHGCVDEDVFHNSRVILFNPLDACRFELMRFRTVFAEKTLPFTLRTATSVNGAEVEVQSWLRMSTGFSANRDPLTQVPCENVMIRYPVPSEWVKNFRRESVLGEKSLKAKVNRGASFGSTSVSGSEPVMRVTLGTAKYEHAFNSIVWRINRLPDKNSASGHPHCFFCHLELGSDREVPSRFANHVNVEFSMPTTSASKASVRSISVEDKTDVRKWVNYSAHYSYQVALGSIWLMLPTPFVHPTTLPLLFLLAMLTMFAW [STON2]”, the “solubility change mitosis (log2)” value with HeLa Kyoto [1] is 0.444. In addition, in the data set with HeLa Kyoto [2], the “solubility in G1/S (log2)” value was -0.622. Further, the thermal stability score is 0.129 in the data set on HeLa Kyoto [3] (setting [4]) and -0.103 with HeLa Kyoto [3] (cell cycle stage: mitosis).
